assay: soluble on expression in E. coli; label from the status in PepcDB or PDB records

Soluble on expression in E. coli, not soluble:
MGSDKIHHHHHHMLANGDVPILQLQHIIKRFGNQVAVNDVSLNIHRGEIVALLGENGAGKSTLIKILAGLYSRDEGEIYFHQQKIQSAQSLTNKNKQPIAFIHQDLGLVEWMTIAENMAFVMGFPRRFGLIDWKKINQQAQEALDFVGIHLSAQTRVFDLSRTEKALLTIARAIAVNAEILVLDEPTASLPASDVEHLFKVLNRLRKQGVGMIYVTHRLDEVIRLSDRILVMRDGYSVAEGSTKDYDVKALVKAIVGEETREKQREPLPKNTPEVVRLNEVVVGDTGPVSFSLHQGEMIALAGLRGAGQEEIGRLLFGLRKLESGDISLNECAYHAESPCEAIYKGVALVAGDRIREGLVMSMTTMENLFINPILSGHFPLKNYASKKERSECWYQFQLFDIRPKNLFIEVSSLSGGNQQKIVLARWMQLNTPVLILEDPTAGVDVGARAEIYDLLNQALKKGVAIIVISNDFEEIAHLCNRALVFNRGDIVGELFNEQVTFANLLALASDASATIN, MGSDKIHHHHHHMLCENCHFNEAEVKLTVKGIDSTHEKWVCSVCAQGENPWLHSNDDNTYHTHQDDIEEAFVVKQILQHLAAKHGINFHEMAFKEEKKCPTCQMTLKDIAHVGKLGCADCYATFKEDIIDIVQRVQGGQFEHVGKTPQSSYKKLAIKKQIEEKSKYLNKLIDGQEFEEAAIVRDEIKALKSESEVSHDE, MGSDKIHHHHHHMLDLKQIGASESRQLKQAHDRGQLSHAYLLLSSDEVEALNTAYWLICYVNCTGEKKPDGTCPACRRILAGNHPDVFLIDTEENKQSIAIDQIRPLKQELAKSPLEGDRRYFVINHAQKLTLPAANALLNLLEEPAAPVVTFLIANNGGQILPTIKSRTQIINFSQQAASSKDRLLLANGMSQEEVDQVKSSQEVDQAVKFFYQELREHDSLAIVSAHQLAGLVKKQKQGTKAWEKYVWILLKKWGEKDLEKGDCQEAANFLADLMRVDQMRQSNVGFLNNLDYLALKWQQ, MGSDKIHHHHHHMLDLNHGSGCQYQKPDRDPGITVAVNAAIDAALVVRNRSQVARQYVSTSGIGRECLRQIQYDYLAVPKDEGRDFEPKTLRIFEAGHRGEDVVAAWLRAAGFDLRTERRDGRQFGFSALNGRFKGHIDGCLVGGPVAMAYPALWENKALGVSSWKDVVKRGVVLSKPVYAAQLALYQAYMDLPAPTLFTALNRDTWEIHCELVPFDAALAQTMSDRAVQVVRASDAQELLPRASAERTSVICRGGKTAGGWHGACSWQDRCWGRCR, MGSDKIHHHHHHMLELRHLRTLIALRDAGSLVEAAERVHLTQSALSHQIKDLEERLGSPLFLRKTRPVTFTRAGERLLALAEQILPQIRMAERDLARLAGHEQGRLHMAIECHSCFQWLMPTIDHFRDHWPEVEVDIPSGYSFDALPSLARESLDLVITADPQPLAGIHYEPLFRYEGLLAVGKQHPLARRDWVTPEELARETLITYPVEHTRLDVFTQFLTPAGFTPAEVRTAELTIMMMQLVASGRGVCALPNWALTEYLERGYVRALHLGEQGVWSTLFAAIREESRDAPWMEDFLRTARETSFAVLAGIKPA, MGSDKIHHHHHHMLERTTRHVRPSLDGQAFYERCTQILSELDDAESSLRNVIAQPRGLLRVDLSGAHATKIVLPNIDQFHELYPDIELVISTGDRLVDLIREGIDCVVRAGRLDDSTLIARHLVDMPQVICASPDYLNKHGTPEQPEDLLSHYCVNFFSTSGGRNYPFELMVNGKKQDYFLKSWIAVNDAENYVLSALQGAGLIQVPHYHVANELKNGRLVEVLSEWESPKMSVSALYPQHRQLSPRVRVFVAWLSELYTGYFANFEYPQK, MGSDKIHHHHHHMLESYITVKQDGFSEIEIKKSRFICSVKRVTSEEEAKAFIAAIKKEHWKANHNCSAFVIGEKNDIQRSSDDGEPSGTAGVPMLEVLKKKELINVVAVVTRYFGGIKLGTGGLIRAYSHALSHTLDEIGLVIGKLQQELLITIAYPLLGKAQAFLEHSPYTLKETIYTESIQLICLVDEQATETFIAEMTDLLNGQLTIEKGATSYHELPFNEKGAQANDI, MGSDKIHHHHHHMLFDTSPKDNRKDFFDREKEIEKLKGLRAPITLVLGLRRTGKSSIIKIGINELNLPYIYLDLRKFEERNYISYKDFLLELQKEINKLVKRLPSLLKALKNIQGIVIMGNEIKFNWNRKDRLSFANLLESFEQASKDNVIIVLDEAQELVKLRGVNLLPALAYAYDNLKRIKFIMSGSEMGLLYDYLRVEDPESPLFGRAFSTVELKPFSREEAIEFLRRGFQEADIDFKDYEVVYEKIGGIPGWLTYFGFIYLDNKNLDFAINQTLEYAKKLILKEFENFLHGREIARKRYLNIMRTLSKCGKWSDVKRALELEEGIEISDSEIYNYLTQLTKHSWIIKEGEKYCPSEPLISLAFS, MGSDKIHHHHHHMLFYLPVTGQNTAVYPDQFGAYFNNMHLVTPSYFPKDVKVNLSLSYKSRTGALNKISTFNVAFTRVFNHTKPTNHLIRIYFYNEKDGPYIHRPRAYINYGYKIALSKQVNIAAGAAFGFAQTAFTAPSSTANGNSISPDASIGLSLQVKNFEAGFSVCQLLNSEVNPVVAPIIYRRYYNTYLSYHADLSPFIKLKSGMLWRALPTYDDDLNIYSMLEYKETISFGGCYRYNKNFSFVVSTNIHIGKESILLSFVYNTPFFTKLPAWTDSVELNGGYNFY, MGSDKIHHHHHHMLGLKLPTDPRWVEIVETNIPEILTDHAYCEQKATTNAMYIVINFPEYTELVSDMIDLAQEELQHFKMVHDIIKKRGLVLGRARAAPYAGDIYAFMRKGHIRKYVLIDRLLFSALIEARSCERFRLLSEQISDPELKEFYRELMISEATHYTTFINYARKYSEGEDIDKRWQEFLAYEATVISKYGDNATMHG, MGSDKIHHHHHHMLHGKVLVAQGGGPTAVINQSMVGAVLESRKFRNVDLVYGAHHGVRGIVNEDFLDLTQETSHNLEMVAQTPSSGLGSTRDKPDLKYCHEIFEVLKAHGIAYFFYIGGNDSSDTVRIVSEEARKAGYPLRCIHIPKTIDNDLVLNDHTPGFPSAARFVAQAFMGVNLDNAALRGIYLAVVMGRHAGFLTAASALGKKFPEDGPHLIYIPERTFRVDSFLTDVKATYDKYGRCVVALSEGIHDEDGAPIITKLSKATEKDAHGNIQLSGTGALSDLLCEEIKGKLGIKRVRGDTFGYLQRSFIGCVSDVDQREAREVGEKAVQFAMWGDQDGSVTIQRTGFYSVDYKLLPLAAVAGKTRVMEDHFIAESGTDVTDSFRMYLRPLLGSGMPDAFRLRLNSVPRILKK, MGSDKIHHHHHHMLHYNALTRGCGRITLLMLGLALCQPVFAHPHSFIDMQTTVESQNDNITGLRMQWTMDPITSADLLYDAGKAKKDSEVWKKLAAEVMANVLGQHYFTDIYRDSQPVKYAPMPTEYHLSRKGNQAILEFVLPLAHPQPLAGKPLLISTYDPTYFVDMSYQNDKAVKLAPALASRCKTSLVTPKPNTELQSYALSLDKNDAPDEDMDLGKQFAQRVTLQCQ, MGSDKIHHHHHHMLITAYRERQTRHREKIQRLLNFLKEETYSDFKILMLLFGFRDHKSLYSLLSKVEGMGLIKKHVLVSRTMKISLWGITSDGLAVVLTPDDAIFPARFEPSKITGWTLEHHLDNQVARITLEQKGASGWVNGDRTTFLSRYEVSHRPDGLITLPGGTVIAIETERRLKTKARYQSILASHLLARTRKNWIYVFYIVPDPQKKRGLERLFEGIRHVIINHQHIPLETRHRNVFRIYTLDELQRLNLGHCL, MGSDKIHHHHHHMLKCSICINDERITRILIVDGRPICKECKVFLEHPPDKEKIKKELEEILSKVDKAIVAYSGGKDSIVALYLAKEKYSIDVEAVMVDHGFIAPQAIKNAKNVAKYLDVPLTIIKRDYSDIFREALLKAKSPCRKCSRRTMEILRKYALKKGYRYMITGHELPFGHHPYRLMSGGIIQVRILSLMSEEERMKILKKLPVELPELPGYTSNCLILGPALQRFWERHGYSFEHRRIAALVRYGLLNKEKALKKVQKPEVPQWQWELVKKKLKLEDGF, MGSDKIHHHHHHMLKDKMIAKGAKYIQSIYQDPFIQGIIKGRLDHDVICHYLQADNIYLGKFADIYALCLAKSDNLRDKQFFLEQIDFTLNRELADGEGPHQALAAYTNRSYQDIIEKGVWYPSADHYIKHMYFHFYENGIAGALAAMSPCPWIYHQLAKKIIEENQFLNGNPFNNWITFYANDTVEELMENYFRMMDYYAQNLSKEKQADLVDAFVKSCQHERRFFQMAINQEKWED
